Laboratory results: patent publication US20250313625A1 (ELPISCIENCE SUZHOU BIOPHARMA, published 2025)

Legend:
[1] = molecular target: T1, human LAG3, full length, stably expressed on cells (human, UniProt P18627 23-525); assay: FACS on 293F cells stably expressing human LAG3
T1 construct: whole, on cells; also called CHOK1-human LAG3
T1 sequence (looked up): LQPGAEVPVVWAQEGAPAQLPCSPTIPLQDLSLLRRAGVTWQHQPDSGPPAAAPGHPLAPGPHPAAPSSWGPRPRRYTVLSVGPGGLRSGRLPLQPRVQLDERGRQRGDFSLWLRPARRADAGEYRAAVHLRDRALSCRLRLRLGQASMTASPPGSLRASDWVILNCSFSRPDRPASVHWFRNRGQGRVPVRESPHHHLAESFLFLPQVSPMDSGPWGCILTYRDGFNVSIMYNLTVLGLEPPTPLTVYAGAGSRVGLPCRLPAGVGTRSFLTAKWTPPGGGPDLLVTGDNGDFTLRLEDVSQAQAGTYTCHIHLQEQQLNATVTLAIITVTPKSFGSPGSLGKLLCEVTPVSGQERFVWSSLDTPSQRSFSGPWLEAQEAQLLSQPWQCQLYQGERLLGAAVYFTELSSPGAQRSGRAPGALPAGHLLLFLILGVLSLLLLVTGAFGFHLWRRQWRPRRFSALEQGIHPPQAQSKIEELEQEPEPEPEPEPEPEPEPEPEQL
Method: (§1) Briefly the antibodies were incubated with 2×10⁵ target cells at 4° C. for 1 hour. After washing, fluorescence labeled anti-mouse IgG 2nd antibody (Life Technologies) was added and incubated at 4° C. for 1 hour. Geometric median fluorescence intensity (MFI) was detected and EC₅₀ was calculated using GraphPad Prism9.0.
MFI was detected and EC₅₀ was calculated using GraphPad Prism9.0.

[2] = molecular target: T2, mFc tagged human LAG3 ECD recombinant protein (human, UniProt P18627 23-450); assay: competitive FACS: mFc-LAG3 ECD binding to Raji cells (MHC II)
T2 construct: extracellular domain; purchased from Biointron; not shown: mouse IgG Fc (mFc) tag
T2 sequence (looked up): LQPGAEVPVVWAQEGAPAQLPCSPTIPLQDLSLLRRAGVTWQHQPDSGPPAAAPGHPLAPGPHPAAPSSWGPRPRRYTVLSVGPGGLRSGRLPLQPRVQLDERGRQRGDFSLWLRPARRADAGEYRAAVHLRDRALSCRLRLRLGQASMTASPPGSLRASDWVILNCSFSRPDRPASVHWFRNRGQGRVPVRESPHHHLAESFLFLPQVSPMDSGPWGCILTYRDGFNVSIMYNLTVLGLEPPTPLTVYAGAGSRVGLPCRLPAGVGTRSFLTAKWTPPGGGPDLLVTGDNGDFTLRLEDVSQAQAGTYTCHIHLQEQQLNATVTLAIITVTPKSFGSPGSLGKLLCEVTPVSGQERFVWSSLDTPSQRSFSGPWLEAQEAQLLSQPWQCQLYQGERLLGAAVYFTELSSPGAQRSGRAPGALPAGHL
Method: Activity of the purified chimeric antibodies to block LAG3 and MHC II interaction was determined by competitive FACS assay. […] After washing, dye labeled anti-mouse Fc 2nd antibody (Sigma) was added and incubated at 37° C. for 1 hour. Fluorescence intensity was detected.

[3] = molecular target: T3, human LAG3 ECD recombinant protein (plate coated, tag not stated) (human, UniProt P18627 23-450); assay: competitive ELISA format I: His-FGL1 binding to coated LAG3 ECD
T3 construct: extracellular domain
T3 sequence (looked up): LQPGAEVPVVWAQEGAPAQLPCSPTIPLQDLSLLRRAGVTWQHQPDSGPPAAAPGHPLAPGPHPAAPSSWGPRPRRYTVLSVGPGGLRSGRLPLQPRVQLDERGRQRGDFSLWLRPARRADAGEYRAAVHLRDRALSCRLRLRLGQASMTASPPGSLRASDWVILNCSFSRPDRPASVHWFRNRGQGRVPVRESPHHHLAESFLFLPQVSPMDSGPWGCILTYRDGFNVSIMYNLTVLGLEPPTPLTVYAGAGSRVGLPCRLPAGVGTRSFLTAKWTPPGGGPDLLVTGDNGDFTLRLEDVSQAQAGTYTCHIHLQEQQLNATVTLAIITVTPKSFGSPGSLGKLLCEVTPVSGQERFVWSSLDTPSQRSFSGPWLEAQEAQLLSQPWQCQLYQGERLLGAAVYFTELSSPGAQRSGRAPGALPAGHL
Method: After washing, HRP labeled anti-His 2nd antibody (Sigma) was added and incubated at 37° C. for 1 hour. Then, 100 μl/well of TMB solution (Biotechnology) was added. After incubation for 15 minutes at room temperature, the reaction was stopped by the addition of 50 μl of 1N HCl. OD 450 nm was read. […] After washing, HRP labeled anti-SA 2nd antibody (Sigma) was added and incubated at 37° C. for 1 hour. Then, 100 μl/well of TMB solution (Biotechnology) was added. After incubation for 15 minutes at room temperature, the reaction was stopped by the addition of 50 μl of 1N HCl. OD 450 nm was read. […] The competition assay of format III is a competitive FACS assay. […] After washing, dye labeled anti-His 2nd antibody (Sigma) was added and incubated at 37° C. for 1 hour. Fluorescence intensity was detected.

[4] = molecular target: T1, human LAG3, full length, stably …; assay: FACS on 293F-human LAG3 cells
Method: as §1

[5] = molecular target: T4, mouse LAG3, full length, stably expressed on CHOK1 cells (mouse, UniProt Q61790 24-521); assay: FACS on CHOK1 cells expressing mouse LAG3
T4 construct: whole, on cells
T4 sequence (looked up): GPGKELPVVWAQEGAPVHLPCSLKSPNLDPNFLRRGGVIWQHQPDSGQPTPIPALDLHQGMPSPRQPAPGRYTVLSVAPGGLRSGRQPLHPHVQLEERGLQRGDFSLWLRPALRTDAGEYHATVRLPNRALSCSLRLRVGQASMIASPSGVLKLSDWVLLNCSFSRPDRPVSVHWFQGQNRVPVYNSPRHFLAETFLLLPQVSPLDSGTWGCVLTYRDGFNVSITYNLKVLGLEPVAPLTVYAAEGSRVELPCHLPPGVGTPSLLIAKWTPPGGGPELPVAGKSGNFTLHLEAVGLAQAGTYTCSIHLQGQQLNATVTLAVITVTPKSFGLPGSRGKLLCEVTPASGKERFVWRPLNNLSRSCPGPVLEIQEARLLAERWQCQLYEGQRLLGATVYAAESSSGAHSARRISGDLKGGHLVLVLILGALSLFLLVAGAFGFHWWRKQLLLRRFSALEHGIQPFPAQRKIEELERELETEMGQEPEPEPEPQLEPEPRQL
Method: as §1

[6] = molecular target: T5, hFc tagged human LAG3 ECD recombinant protein (human, UniProt P18627 23-450); assay: competitive ELISA: excess competitor, biotin hFc-LAG3 ECD, coated BAP-050
T5 construct: range 23-450; also called biotin labelled hFc tagged human LAG3 ECD; not shown: human IgG Fc tag
T5 sequence (looked up): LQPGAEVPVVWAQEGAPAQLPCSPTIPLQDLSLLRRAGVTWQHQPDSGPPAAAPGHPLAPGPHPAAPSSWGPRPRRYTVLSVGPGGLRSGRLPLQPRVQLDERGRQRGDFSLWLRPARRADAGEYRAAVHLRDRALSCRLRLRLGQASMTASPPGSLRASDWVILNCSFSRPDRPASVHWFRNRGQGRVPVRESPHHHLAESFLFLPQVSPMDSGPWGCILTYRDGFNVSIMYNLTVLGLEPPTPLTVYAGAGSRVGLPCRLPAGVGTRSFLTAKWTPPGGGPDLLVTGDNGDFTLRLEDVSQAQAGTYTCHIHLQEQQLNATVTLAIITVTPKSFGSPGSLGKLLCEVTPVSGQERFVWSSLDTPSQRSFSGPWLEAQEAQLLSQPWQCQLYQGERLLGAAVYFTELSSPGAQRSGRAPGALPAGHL
Method: (§2) Competitive ELISA assay was used for epitope binning of the purified hybridoma antibodies. […] After washing, HRP labeled anti-streptavidin (SA) 2nd antibody (Sigma) was added and incubated at 37° C. for 1 hour. Then, 100 μl/well of TMB solution (Biotechnology) was added. After incubation for 15 minutes at room temperature, the reaction was stopped by the addition of 50 μl of 1N HCl. OD 450 nm was read. Competition ratio was calculated.

[7] = molecular target: T5, hFc tagged human LAG3 ECD recombinant …; assay: competitive FACS: hFc-LAG3 ECD binding to Raji cells (MHC II)
Method: Competitive FACS assay was used to determine whether the purified hybridoma antibodies can block LAG3 and MHC II interaction. […] After washing, dye labeled anti-human Fc 2nd antibody (Sigma) was added and incubated at 37° C. for 1 hour. Fluorescence intensity was detected.

[8] = molecular target: T6, hFc tagged human LAG3 D1-D2 recombinant protein (human, UniProt P18627 23-261); assay: ELISA, coated hFc-hLAG3 D1-D2
T6 construct: range 23-261; generated by Chempartner; also called hLAG3 D1-D2; not shown: human IgG Fc tag
T6 sequence (looked up): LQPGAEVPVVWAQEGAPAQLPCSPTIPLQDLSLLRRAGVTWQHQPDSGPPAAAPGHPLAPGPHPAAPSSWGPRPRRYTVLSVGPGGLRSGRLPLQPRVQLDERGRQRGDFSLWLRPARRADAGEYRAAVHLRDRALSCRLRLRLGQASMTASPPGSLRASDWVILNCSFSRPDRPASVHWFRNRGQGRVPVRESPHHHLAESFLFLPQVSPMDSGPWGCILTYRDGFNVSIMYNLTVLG
Method: Binding activity of the purified hybridoma antibodies against human LAG3 was detected by ELISA assay using hFc tagged human LAG3 D1-D2 recombinant protein. Briefly the antibodies were incubated with ELISA microplate coated antigens at 37° C. for 1 hour. After washing, horseradish peroxidase (HRP) labeled anti-human IgG 2nd Ab (Sigma) was added and incubated at 37° C. for 1 hour. Then, 100 μl/well of TMB solution (Biotechnology) was added. After incubation for 15 minutes at room temperature, the reaction was stopped by the addition of 50 μl of 1N HCl. OD 450 nm was read and EC₅₀ was calculated using GraphPad Prism9.0.

[9] = molecular target: T5, hFc tagged human LAG3 ECD recombinant …; assay: competitive ELISA: excess competitor, biotin hFc-LAG3 ECD, coated BMS-986016
Method: as §2

Row | Binder | EC50 [1] [nM] | TOP MFI [1] | IC50 [2] [nM] | TOP blocking (%) [2] [%] | Blocking ratio at 66.7 nM (%) [3] [%] | EC50 [4] [nM] | binding result [5] | % competition [6] [%] | IC50 [7] [nM] | TOP blocking (%) [7] [%] | EC50 [8] [nM] | % competition [9] [%]
1 | 015c (antibody, human IgG4, V domains shown, human IgG4 S228P / kappa chimeric antibody; also called chimeric antibody 015; not shown: human kappa light chain constant region (pcDNA3.4-hIgGk vector)) VH: EVQLQQSGPVLVKPGASVKLSCKASGFTFTDYYMNWVKLSHGKSLEWIGVINPFNGDTAYKQKFKGKATLTVDKSSSTAYMELNSLTSEDSAVYYCARDDGYYLYYFDSWGQGTTLTVSS VL: DIQMTQSPSSLSASLGERVSLTCRASQDIGSRLNWLQQEPDGTIKRLIYATSSLDSGVPKRFSGSRSGSDYSLTISSLDSEDFVVYYCLQYASSPPTFGAGTKLELK | 1.9 | 296 | 5.4 | 77.1 | 43.6 | – | – | – | – | – | – | –
2 | Antibody 015 (antibody, V domains shown, mouse hybridoma antibody) VH: EVQLQQSGPVLVKPGASVKLSCKASGFTFTDYYMNWVKLSHGKSLEWIGVINPFNGDTAYKQKFKGKATLTVDKSSSTAYMELNSLTSEDSAVYYCARDDGYYLYYFDSWGQGTTLTVSS VL: DIQMTQSPSSLSASLGERVSLTCRASQDIGSRLNWLQQEPDGTIKRLIYATSSLDSGVPKRFSGSRSGSDYSLTISSLDSEDFVVYYCLQYASSPPTFGAGTKLELK | – | – | – | – | – | 2.09 | no binding | 1.6 | 2.7 | 94.3 | 0.25 | 10
3 | 024c (antibody, human IgG4, V domains shown, human IgG4 S228P / kappa chimeric antibody; also called chimeric antibody 024; not shown: human kappa light chain constant region (pcDNA3.4-hIgGk vector)) VH: EVQLQQSGPELVKPGASVKISCKASGYTFTDYYMNWVKQSHGKRLEWIGDIDPNNGGTSYNQKFKGKATLTVDKSSSSAYMDLRSLTSEDSAVYYCARAGSYYYGSSYVEYFDVWGTGTTVTVSS VL: DIQMTQSPASLSASVGETVTITCRASGNIHNYLAWYQQKQGASPQLLVYNAKTLADGVPSRFSGSGSGTEFSLKINSLQPEDFGNYYCQHFWNTPYTFGGGTKLEIK | 1.1 | 346 | 3.7 | 96.9 | 39.4 | – | – | – | – | – | – | –
4 | 035c (antibody, human IgG4, V domains shown, human IgG4 S228P / kappa chimeric antibody; also called chimeric antibody 035; not shown: human kappa light chain constant region (pcDNA3.4-hIgGk vector)) VH: QVQLQQSGAELARPGASVKLSCKASGYSFTSYGINWVKQRTGQGLEWIGEIYPRSGNTYYNEKFKDKATLTADKSSSTAYMELRSLTSEDSAVYFCARGGTYDGYYYAMDFWGQGTSVTVSS VL: DIVLTQSPASLAVSLGQRATISCRASESVDNFGSSFLHWYQQKPGQAPKLLIYRASNLESGIPARFSGSGSRTDFTLTINPVETDDVATYYCQQVNKDPRTFGGGTKLEIK | 1.3 | 333 | 4.3 | 95.9 | 24.3 | – | – | – | – | – | – | –
5 | Antibody 039 (antibody, V domains shown, mouse hybridoma antibody) VH: EFQLQQSGPELVKPGASVKISCKASGYSFTDYNLNWVRQSNGKSLEWIGLVDPIYGTIRYNQNFKDKATLTVDQSSSTAYMQLNSLTSEDSAVYYCASIMTAVRYFDHWGQGTTLTVSS VL: DVLMTQTPLFLPVSLGDQASISCRSSLNIVHSDGNTYLEWYLQKPGQSPKLLIYKVSNRFSGVPDRFSGSGSGTDFTLKISGVEAEDLGVYYCFQGSHVPPTFGGGTKLEIK | – | – | – | – | – | 1.38 | no binding | 2.6 | 5.2 | 94.9 | 0.04 | 19.3
6 | Antibody 048 (antibody, V domains shown, mouse hybridoma antibody) VH: EFQVQQSGPELVKPGASVKISCKASGYSFSDYNMNWLKQSTGKSLEWIGLVDPIYGTIRYNQKFKGKATLTVDQSSSTAYMQLNSLTSEDSAVYYCALITTSVRYFDYWGQGTTLTVSS VL: DVLMTQTPLSLPVSLGDQASISCRSSQNIVHTDGNTYLEWYLQKPGQSPKLLIYKVSNRFSGVPDRFSGSGSGTDFTLKISRVEAEDLGVYYCFQGSHVPPTFGGGTKLEIK | – | – | – | – | – | 1.19 | no binding | 10 | 7.6 | 92.9 | 0.05 | 41.7
